{"source": "the supplement of paper PMC9112550", "about": "“Optimization of the antimicrobial peptide Bac7 by deep mutational scanning” (BMC Biology, 2022);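 note: peptides expressed intracellularly from a pBAD plasmid library in pooled LB shake-flask culture, induced with 0.3% L-arabinose, DNA abundance read by NGS, three biological replicates, DESeq2 with apeglm shrinkage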"}
{"tested_on": "Escherichia coli TOP10", "test": "shrunken log2 fold change of peptide-encoding DNA abundance (4.5 h post-induction vs induction); higher = less antimicrobial activity (less host growth inhibition)", "conditions": "time post-induction: 4.5 h; library: site-saturation at positions 5, 18, 19, 20"}
{"sequence": "RRIRDRPPRLPRPRPRPIWIPRP", "shrunken log2 fold change": 0.0877}
{"sequence": "RRIRPRPPRLPRPRPRPANPPRP", "shrunken log2 fold change": 0.13}
{"sequence": "RRIRHRPPRLPRPRPRPQDIPRP", "shrunken log2 fold change": -0.343}
{"sequence": "RRIRNRPPRLPRPRPRPGTSPRP", "shrunken log2 fold change": -0.0337}
{"sequence": "RRIRVRPPRLPRPRPRPYYDPRP", "shrunken log2 fold change": -0.429}
{"sequence": "RRIRIRPPRLPRPRPRPNGGPRP", "shrunken log2 fold change": -0.108}
{"sequence": "RRIRRRPPRLPRPRPRPIVEPRP", "shrunken log2 fold change": 0.136}
{"sequence": "RRIRQRPPRLPRPRPRPACAPRP", "shrunken log2 fold change": 0.587}
{"sequence": "RRIRIRPPRLPRPRPRPGTEPRP", "shrunken log2 fold change": -0.0203}
{"sequence": "RRIRKRPPRLPRPRPRPKCIPRP", "shrunken log2 fold change": 0.317}
{"sequence": "RRIRRRPPRLPRPRPRPCPVPRP", "shrunken log2 fold change": -0.256}
{"sequence": "RRIRPRPPRLPRPRPRPIHSPRP", "shrunken log2 fold change": -0.0694}
{"sequence": "RRIRLRPPRLPRPRPRPSYGPRP", "shrunken log2 fold change": -0.585}
{"sequence": "RRIRHRPPRLPRPRPRPTKVPRP", "shrunken log2 fold change": -0.0672}
{"sequence": "RRIRGRPPRLPRPRPRPVKDPRP", "shrunken log2 fold change": 0.68}
{"sequence": "RRIRGRPPRLPRPRPRPYVWPRP", "shrunken log2 fold change": 0.131}
{"sequence": "RRIRERPPRLPRPRPRPNLWPRP", "shrunken log2 fold change": 0.0252}
{"sequence": "RRIRARPPRLPRPRPRPHTKPRP", "shrunken log2 fold change": 0.0902}
{"sequence": "RRIRLRPPRLPRPRPRPTRCPRP", "shrunken log2 fold change": -0.119}
{"sequence": "RRIRARPPRLPRPRPRPYLLPRP", "shrunken log2 fold change": -0.76}
{"sequence": "RRIRERPPRLPRPRPRPPVNPRP", "shrunken log2 fold change": 0.148}
{"sequence": "RRIRNRPPRLPRPRPRPIDIPRP", "shrunken log2 fold change": -0.947}
{"sequence": "RRIRQRPPRLPRPRPRPECFPRP", "shrunken log2 fold change": 0.398}
{"sequence": "RRIRFRPPRLPRPRPRPKTIPRP", "shrunken log2 fold change": -0.223}
{"sequence": "RRIRIRPPRLPRPRPRPEASPRP", "shrunken log2 fold change": 0.144}
{"sequence": "RRIRCRPPRLPRPRPRPDLTPRP", "shrunken log2 fold change": -0.275}
{"sequence": "RRIRIRPPRLPRPRPRPPVAPRP", "shrunken log2 fold change": 0.123}
{"sequence": "RRIRARPPRLPRPRPRPLKWPRP", "shrunken log2 fold change": 0.218}
{"sequence": "RRIRSRPPRLPRPRPRPKECPRP", "shrunken log2 fold change": -0.043}
{"sequence": "RRIRGRPPRLPRPRPRPWAHPRP", "shrunken log2 fold change": 0.0122}
{"sequence": "RRIRYRPPRLPRPRPRPRCEPRP", "shrunken log2 fold change": 0.076}
{"sequence": "RRIRVRPPRLPRPRPRPMTQPRP", "shrunken log2 fold change": 0.181}
{"sequence": "RRIRNRPPRLPRPRPRPVIFPRP", "shrunken log2 fold change": -0.565}
{"sequence": "RRIRSRPPRLPRPRPRPKPKPRP", "shrunken log2 fold change": 0.545}
{"sequence": "RRIRVRPPRLPRPRPRPAHPPRP", "shrunken log2 fold change": 0.0808}
{"sequence": "RRIRLRPPRLPRPRPRPPMKPRP", "shrunken log2 fold change": -0.144}
{"sequence": "RRIRARPPRLPRPRPRPEQCPRP", "shrunken log2 fold change": 0.42}
{"sequence": "RRIRQRPPRLPRPRPRPKIWPRP", "shrunken log2 fold change": 0.362}
{"sequence": "RRIRFRPPRLPRPRPRPQSCPRP", "shrunken log2 fold change": -0.0102}
{"sequence": "RRIRDRPPRLPRPRPRPTSPPRP", "shrunken log2 fold change": -0.267}
{"sequence": "RRIRERPPRLPRPRPRPQCNPRP", "shrunken log2 fold change": 0.117}
{"sequence": "RRIRSRPPRLPRPRPRPRWNPRP", "shrunken log2 fold change": 0.0205}
{"sequence": "RRIRRRPPRLPRPRPRPVPPPRP", "shrunken log2 fold change": 0.77}
{"sequence": "RRIRLRPPRLPRPRPRPMLGPRP", "shrunken log2 fold change": 0.0421}
{"sequence": "RRIRCRPPRLPRPRPRPIYWPRP", "shrunken log2 fold change": -0.815}
{"sequence": "RRIRYRPPRLPRPRPRPIYGPRP", "shrunken log2 fold change": -0.428}
{"sequence": "RRIRQRPPRLPRPRPRPYQGPRP", "shrunken log2 fold change": 0.00707}
{"sequence": "RRIRARPPRLPRPRPRPTWYPRP", "shrunken log2 fold change": -0.00985}
{"sequence": "RRIRIRPPRLPRPRPRPRREPRP", "shrunken log2 fold change": 0.123}
{"sequence": "RRIRRRPPRLPRPRPRPNWHPRP", "shrunken log2 fold change": 0.151}
{"sequence": "RRIRWRPPRLPRPRPRPKDHPRP", "shrunken log2 fold change": 0.182}
{"sequence": "RRIRMRPPRLPRPRPRPAIMPRP", "shrunken log2 fold change": 0.284}
{"sequence": "RRIRGRPPRLPRPRPRPAWYPRP", "shrunken log2 fold change": 0.405}
{"sequence": "RRIRMRPPRLPRPRPRPKIDPRP", "shrunken log2 fold change": 0.285}
{"sequence": "RRIRARPPRLPRPRPRPDIDPRP", "shrunken log2 fold change": 0.462}
{"sequence": "RRIRTRPPRLPRPRPRPVTQPRP", "shrunken log2 fold change": 0.0354}
{"sequence": "RRIRWRPPRLPRPRPRPHMDPRP", "shrunken log2 fold change": -0.18}
{"sequence": "RRIRFRPPRLPRPRPRPDQIPRP", "shrunken log2 fold change": -0.0948}
{"sequence": "RRIRNRPPRLPRPRPRPKWQPRP", "shrunken log2 fold change": 0.182}
{"sequence": "RRIRERPPRLPRPRPRPPQRPRP", "shrunken log2 fold change": 0.315}
{"sequence": "RRIRPRPPRLPRPRPRPEVLPRP", "shrunken log2 fold change": -0.204}
{"sequence": "RRIRSRPPRLPRPRPRPIHLPRP", "shrunken log2 fold change": 0.0485}
{"sequence": "RRIRPRPPRLPRPRPRPPCMPRP", "shrunken log2 fold change": -0.165}
{"sequence": "RRIRWRPPRLPRPRPRPICHPRP", "shrunken log2 fold change": -0.0597}
{"sequence": "RRIRPRPPRLPRPRPRPRMPPRP", "shrunken log2 fold change": 0.249}
{"sequence": "RRIRMRPPRLPRPRPRPICNPRP", "shrunken log2 fold change": -0.0126}
{"sequence": "RRIRPRPPRLPRPRPRPNLKPRP", "shrunken log2 fold change": -0.0156}
{"sequence": "RRIRYRPPRLPRPRPRPWHIPRP", "shrunken log2 fold change": -0.103}
{"sequence": "RRIRQRPPRLPRPRPRPTVAPRP", "shrunken log2 fold change": 0.118}
{"sequence": "RRIRRRPPRLPRPRPRPQMIPRP", "shrunken log2 fold change": -0.0521}
{"sequence": "RRIRVRPPRLPRPRPRPMPDPRP", "shrunken log2 fold change": 0.00211}
{"sequence": "RRIRSRPPRLPRPRPRPRVPPRP", "shrunken log2 fold change": 0.692}
{"sequence": "RRIRKRPPRLPRPRPRPGTAPRP", "shrunken log2 fold change": 0.625}
{"sequence": "RRIRHRPPRLPRPRPRPPHCPRP", "shrunken log2 fold change": -0.203}
{"sequence": "RRIRTRPPRLPRPRPRPCWPPRP", "shrunken log2 fold change": 0.0465}
